The target of this experiment is rat collagen type I (rat) (UniProt P02454). Kind of experiment: ELISA; rat collagen type I coated on a 96-well plate; rPnxIIIA variants applied at 10 μg/ml; detected with anti-6x Histidine tag monoclonal antibody, read as A620.
UniProt P02454, sequence (P02454 152-1207, chain 1 of 2): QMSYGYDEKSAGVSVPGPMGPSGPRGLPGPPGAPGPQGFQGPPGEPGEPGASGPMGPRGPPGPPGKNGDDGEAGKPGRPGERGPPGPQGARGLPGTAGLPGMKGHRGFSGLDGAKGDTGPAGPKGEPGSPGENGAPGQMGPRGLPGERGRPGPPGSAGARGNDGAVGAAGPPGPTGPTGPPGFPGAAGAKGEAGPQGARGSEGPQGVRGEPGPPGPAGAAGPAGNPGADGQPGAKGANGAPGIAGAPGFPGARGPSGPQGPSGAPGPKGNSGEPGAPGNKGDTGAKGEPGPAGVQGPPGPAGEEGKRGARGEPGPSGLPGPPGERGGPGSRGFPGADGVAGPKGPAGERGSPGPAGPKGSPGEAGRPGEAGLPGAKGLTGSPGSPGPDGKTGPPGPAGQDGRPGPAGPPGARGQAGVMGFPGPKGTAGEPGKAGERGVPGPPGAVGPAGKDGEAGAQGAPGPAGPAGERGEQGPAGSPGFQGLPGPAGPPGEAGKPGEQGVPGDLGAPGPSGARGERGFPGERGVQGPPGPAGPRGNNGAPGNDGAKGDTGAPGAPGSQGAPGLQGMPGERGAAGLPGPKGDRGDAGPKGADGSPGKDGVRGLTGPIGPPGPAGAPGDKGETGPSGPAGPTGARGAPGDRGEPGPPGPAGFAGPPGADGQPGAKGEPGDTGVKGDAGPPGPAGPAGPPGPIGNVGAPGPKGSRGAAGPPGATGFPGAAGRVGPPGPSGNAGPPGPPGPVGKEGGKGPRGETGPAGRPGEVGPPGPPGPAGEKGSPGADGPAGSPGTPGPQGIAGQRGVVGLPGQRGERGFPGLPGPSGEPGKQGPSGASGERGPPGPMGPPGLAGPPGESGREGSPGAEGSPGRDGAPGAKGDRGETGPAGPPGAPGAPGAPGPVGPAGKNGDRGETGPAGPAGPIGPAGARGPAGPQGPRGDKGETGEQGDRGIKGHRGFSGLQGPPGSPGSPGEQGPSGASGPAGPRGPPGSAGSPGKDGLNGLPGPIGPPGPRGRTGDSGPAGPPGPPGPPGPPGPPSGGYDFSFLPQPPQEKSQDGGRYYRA
UniProt P02454, sequence (P02466 86-1125, chain 2 of 2, further chain): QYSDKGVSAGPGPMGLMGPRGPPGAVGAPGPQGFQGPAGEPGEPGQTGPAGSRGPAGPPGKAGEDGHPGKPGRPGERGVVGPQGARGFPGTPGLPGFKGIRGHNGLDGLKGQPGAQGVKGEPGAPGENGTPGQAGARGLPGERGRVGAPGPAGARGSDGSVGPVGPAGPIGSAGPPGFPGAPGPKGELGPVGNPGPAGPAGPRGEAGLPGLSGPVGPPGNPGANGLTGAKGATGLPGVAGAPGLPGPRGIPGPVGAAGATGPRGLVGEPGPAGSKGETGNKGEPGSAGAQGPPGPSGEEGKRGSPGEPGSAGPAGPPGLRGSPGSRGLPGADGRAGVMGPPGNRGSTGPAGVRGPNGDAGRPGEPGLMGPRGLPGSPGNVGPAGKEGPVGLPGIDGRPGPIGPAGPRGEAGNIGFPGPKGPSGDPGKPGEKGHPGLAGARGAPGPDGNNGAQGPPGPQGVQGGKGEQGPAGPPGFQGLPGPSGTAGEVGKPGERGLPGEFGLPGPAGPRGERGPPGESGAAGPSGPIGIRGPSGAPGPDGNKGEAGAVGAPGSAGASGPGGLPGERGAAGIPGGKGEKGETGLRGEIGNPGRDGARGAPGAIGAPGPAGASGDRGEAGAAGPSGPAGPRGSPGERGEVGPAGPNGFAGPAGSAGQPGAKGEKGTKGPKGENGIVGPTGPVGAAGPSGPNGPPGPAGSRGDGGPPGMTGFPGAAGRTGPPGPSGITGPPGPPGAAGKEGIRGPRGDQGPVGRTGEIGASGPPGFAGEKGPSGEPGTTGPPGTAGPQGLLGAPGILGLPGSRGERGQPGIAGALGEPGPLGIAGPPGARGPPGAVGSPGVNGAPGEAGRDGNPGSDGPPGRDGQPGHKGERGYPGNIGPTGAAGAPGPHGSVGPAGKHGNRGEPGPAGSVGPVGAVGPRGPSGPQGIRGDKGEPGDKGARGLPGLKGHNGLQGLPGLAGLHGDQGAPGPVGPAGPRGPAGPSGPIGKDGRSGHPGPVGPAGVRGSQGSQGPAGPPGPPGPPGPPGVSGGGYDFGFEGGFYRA

In turn, “Recombinant PnxIIIA protein (natural protein)” yielded an A620 at 10 μg/ml of 0.55 A620.

For the origin of these results see paper PMC3075217.
